Changes are numbered by the printed parent chain. In names and notes the source's numbering stands.
Legend:
cross-linking = target: the molecule itself; assay: cross-linking
[1] = target: the molecule itself; assay: single-molecule fluorescence
[2] = target: the molecule itself; assay: single-molecule fluorescence; remark: listed apart in the source
SDS-PAGE of the tetramer = target: the molecule itself; assay: SDS-PAGE of the tetramer

B1: KdpFABC complex from Escherichia coli (complex)
chain 1: MSAGVITGVLLVFLLLGYLVYALINAEAF
chain 2: MAAQGFLLIATFLLVLMVLARPLGSGLARLINDIPLPGTTGVERVLFRALGVSDREMNWKQYLCAILGLNMLGLAVLFFMLLGQHYLPLNPQQLPGLSWDLALNTAVSFVTNTNWQSYSGETTLSYFSQMAGLTVQNFLSAASGIAVIFALIRAFTRQSMSTLGNAWVDLLRITLWVLVPVALLIALFFIQQGALQNFLPYQAVNTVEGAQQLLPMGPVASQEAIKMLGTNGGGFFNANSSHPFENPTALTNFVQMLAIFLIPTALCFAFGEVMGDRRQGRMLLWAMSVIFVICVGVVMWAEVQGNPHLLALGTDSSINMEGKESRFGVLVSSLFAVVTTAASCGAVIAMHDSFTALGGMVPMWLMQIGEVVFGGVGSGLYGMMLFVLLAVFIAGLMIGRTPEYLGKKIDVREMKLTALAILVTPTLVLMGAALAMMTDAGRSAMLNPGPHGFSEVLYAVSSAANNNGSAFAGLSANSPFWNCLLAFCMFVGRFGVIIPVMAIAGSLVSKKSQAASSGTLPTHGPLFVGLLIGTVLLVGALTFIPALALGPVAEYLS
chain 3: MSRKQLALFEPTLVVQALKEAVKKLNPQAQWRNPVMFIVWIGSLLTTCISIAMASGAMPGNALFSAAISGWLWITVLFANFAEALAEGRSKAQANSLKGVKKTAFARKLREPKYGAAADKVPADQLRKGDIVLVEAGDIIPCDGEVIEGGASVDESAITGESAPVIRESGGDFASVTGGTRILSDWLVIECSVNPGETFLDRMIAMVEGAQRRKTPNEIALTILLIALTIVFLLATATLWPFSAWGGNAVSVTVLVALLVCLIPTTIGGLLSAIGVAGMSRMLGANVIATSGRAVEAAGDVDVLLLDKTGTITLGNRQASEFIPAQGVDEKTLADAAQLASLADETPEGRSIVILAKQRFNLRERDVQSLHATFVPFTAQSRMSGINIDNRMIRKGSVDAIRRHVEANGGHFPTDVDQKVDQVARQGATPLVVVEGSRVLGVIALKDIVKGGIKERFAQLRKMGIKTVMITGDNRLTAAAIAAEAGVDDFLAEATPEAKLALIRQYQAEGRLVAMTGDGTNDAPALAQADVAVAMNSGTQAAKEAGNMVDLDSNPTKLIEVVHIGKQMLMTRGSLTTFSIANDVAKYFAIIPAAFAATYPQLNALNIMCLHSPDSAILSAVIFNALIIVFLIPLALKGVSYKPLTASAMLRRNLWIYGLGGLLVPFIGIKVIDLLLTVCGLV
chain 4: MSGLRPALSTFIFLLLITGGVYPLLTTVLGQWWFPWQANGSLIREGDTVRGSALIGQNFTGNGYFHGRPSATAEMPYNPQASGGSNLAVSNPELDKLIAARVAALRAANPDASASVPVELVTASASGLDNNITPQAAAWQIPRVAKARNLSVEQLTQLIAKYSQQPLVKYIGQPVVNIVELNLALDKLDE
cross-linking
  stoichiometry N: 2

B2: pig gastric H/K-ATPase (αβ protomer), FITC-modified (complex)
chain 1: not shown
chain 2: MAALQEKKSCSQRMEEFQRYCWNPDTGQMLGRTLSRWVWISLYYVAFYVVMSGIFALCIYVLMRTIDPYTPDYQDQLKSPGVTLRPDVYGEKGLDISYNVSDSTTWAGLAHTLHRFLAGYSPAAQEGSINCTSEKYFFQESFLAPNHTKFSCKFTADMLQNCSGRPDPTFGFAEGKPCFIIKMNRIVKFLPGNSTAPRVDCAFLDQPRDGPPLQVEYFPANGTYSLHYFPYYGKKAQPHYSNPLVAAKLLNVPRNRDVVIVCKILAEHVSFDNPHDPYEGKVEFKLKIQK
[1]
  stoichiometry N: 2
[2]
  stoichiometry N: 4

B3: KcsA T75C (natural protein)
chain: MPPMLSGLLARLVKLLLGRHGSALHWRAAGAATVLLVIVLLAGSYLAVLAERGAPGAQLITYPRALWWSVETATCVGYGDLYPVTLWGRLVAVVVMVAGITSFGLVTAALATWFVGREQERRGHFVRHSEKAAEEAYTRTTRALHERFDRLERMLDDNRR
SDS-PAGE of the tetramer
  binding result: binds

B4: KcsA Thr75 to Ala (natural protein)
chain: B3 chain with C75A
SDS-PAGE of the tetramer
  binding result: binds
